From patent publication US20130323281A1

Molecular target: human TLR5 on HEK-Blue-hTLR5 cells (human) (UniProt O60602)
Assay: cell-based or functional assay

Sequence of UniProt O60602 (O60602 21-858): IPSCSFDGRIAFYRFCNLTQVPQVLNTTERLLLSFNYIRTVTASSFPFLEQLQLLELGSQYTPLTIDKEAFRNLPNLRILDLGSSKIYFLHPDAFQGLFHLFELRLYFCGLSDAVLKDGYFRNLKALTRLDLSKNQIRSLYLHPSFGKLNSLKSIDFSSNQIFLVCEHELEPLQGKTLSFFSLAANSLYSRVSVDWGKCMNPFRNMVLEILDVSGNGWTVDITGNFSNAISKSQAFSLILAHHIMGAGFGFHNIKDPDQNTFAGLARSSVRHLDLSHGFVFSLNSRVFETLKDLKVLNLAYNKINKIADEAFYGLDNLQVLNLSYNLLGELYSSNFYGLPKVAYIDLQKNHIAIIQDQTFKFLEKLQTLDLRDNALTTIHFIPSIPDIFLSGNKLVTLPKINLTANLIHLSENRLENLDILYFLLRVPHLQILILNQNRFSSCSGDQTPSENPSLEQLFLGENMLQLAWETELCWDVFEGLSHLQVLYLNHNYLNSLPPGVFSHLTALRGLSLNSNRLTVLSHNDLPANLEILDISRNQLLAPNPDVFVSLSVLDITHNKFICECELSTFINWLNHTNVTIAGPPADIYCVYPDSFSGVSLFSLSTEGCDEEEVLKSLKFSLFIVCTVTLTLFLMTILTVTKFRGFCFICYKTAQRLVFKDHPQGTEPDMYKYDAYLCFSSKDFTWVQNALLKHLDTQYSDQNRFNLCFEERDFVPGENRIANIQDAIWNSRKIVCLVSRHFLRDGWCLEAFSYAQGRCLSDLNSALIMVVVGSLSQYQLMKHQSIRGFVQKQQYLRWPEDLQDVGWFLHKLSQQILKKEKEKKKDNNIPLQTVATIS

Substance: flagellin (G239HPG, M310I, M466I) conjugated to Hepatitis B core (HBc) VLP by azide-alkyne click reaction
- flagellin bioactivity (SEAP reporter, HEK-Blue-hTLR5 cells), fold against free flagellin: 10 fold

Substance: flagellin (fliC gene product) from Salmonella typhimurium SL1344, wild-type, produced by cell-free protein synthesis (from UniProt P06179 2-495) (ligand)
- EC50 in flagellin bioactivity assay (SEAP reporter, HEK-Blue-hTLR5 cells): 2.4 pM
- bioactivity assay (SEAP reporter, HEK-Blue-hTLR5 cells), given as 'affinity': 6 pM

Substance: flagellin Mutation III (M1HPG, Ala2Ile, M310I, M466I) conjugated to Hepatitis B core (HBc) VLP
- bioactivity assay (SEAP reporter, HEK-Blue-hTLR5 cells), fold against free flagellin: 5 fold
